These results are taken from patent US20120039906A1.

The assay concerns the target PD-1 Ig fusion protein (extracellular region of human PD-1, aa 1 to 152, fused to the Fc fragment of human IgG1) (human) (UniProt Q15116). The experiment in a line: SPR (Biacore), 1:1 Langmuir model, PD-L2 Ig over immobilised PD-1 Ig; bivalent analyte, filing calls it most likely an avidity value. A general note: SPR reads the build-up and loss of mass on a sensor chip optically.

Sequence of PD-1 Ig fusion protein (extracellular region of human PD-1, aa 1 to 152, fused to the Fc fragment of human IgG1) (human) (Q15116 other isoform, or with tags, fused parts or gaps limits assumed, form in doubt): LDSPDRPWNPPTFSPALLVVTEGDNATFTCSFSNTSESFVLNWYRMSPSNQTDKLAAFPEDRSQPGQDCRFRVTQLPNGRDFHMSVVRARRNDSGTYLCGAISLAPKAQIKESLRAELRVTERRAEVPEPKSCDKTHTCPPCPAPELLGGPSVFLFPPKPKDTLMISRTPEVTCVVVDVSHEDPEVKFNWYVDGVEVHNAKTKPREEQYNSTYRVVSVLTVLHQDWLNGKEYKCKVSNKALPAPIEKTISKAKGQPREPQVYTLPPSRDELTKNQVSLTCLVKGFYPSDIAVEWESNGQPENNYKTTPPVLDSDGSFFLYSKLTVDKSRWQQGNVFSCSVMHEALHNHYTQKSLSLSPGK

As for “PD-L2 Ig fusion protein (extracellular portion of human PD-L2 fused to the Fc fragment of human IgG1) (from UniProt Q9BQ51 20-220) (Fc fusion)”, the Kd worked out at 9.97 nM.
